The values that follow come from PMC2889767.

In the data set the target is T1, Rfx3 (in vitro translated) (UniProt P48381 1-749).
T1 sequence: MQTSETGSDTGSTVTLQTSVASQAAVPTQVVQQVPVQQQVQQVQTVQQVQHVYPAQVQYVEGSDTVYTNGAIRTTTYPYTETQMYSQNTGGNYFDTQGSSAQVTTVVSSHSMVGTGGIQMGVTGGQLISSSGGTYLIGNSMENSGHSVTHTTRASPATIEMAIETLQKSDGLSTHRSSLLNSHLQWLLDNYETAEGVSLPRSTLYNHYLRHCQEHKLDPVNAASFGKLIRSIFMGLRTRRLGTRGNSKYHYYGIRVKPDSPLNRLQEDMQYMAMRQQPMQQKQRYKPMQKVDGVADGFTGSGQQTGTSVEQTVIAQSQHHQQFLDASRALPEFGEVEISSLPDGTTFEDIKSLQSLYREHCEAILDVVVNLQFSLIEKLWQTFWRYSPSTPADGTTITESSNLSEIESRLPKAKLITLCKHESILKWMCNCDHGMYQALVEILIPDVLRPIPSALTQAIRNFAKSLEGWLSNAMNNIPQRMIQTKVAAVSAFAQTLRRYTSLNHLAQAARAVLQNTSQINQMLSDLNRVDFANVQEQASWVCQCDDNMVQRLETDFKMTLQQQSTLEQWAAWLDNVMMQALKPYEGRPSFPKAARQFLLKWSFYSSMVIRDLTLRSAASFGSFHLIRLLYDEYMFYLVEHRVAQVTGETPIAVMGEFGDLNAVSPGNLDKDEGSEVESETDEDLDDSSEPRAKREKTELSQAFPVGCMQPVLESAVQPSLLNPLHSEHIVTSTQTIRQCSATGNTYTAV
Put plainly: EMSA.

B1: Pal-2 wild type (dsDNA)
DNA 1: GGCAATGGTCACCATAGAAACCACAG
DNA 2: GGCTGTGGTTTCTATGGTGACCATTG
For B1, the binding result is “binds”.

B2: Pal-1 wild type (dsDNA)
DNA 1: GGGAGTGGTCACCATGGTGACAGGAG
DNA 2: GGCTCCTGTCACCATGGTGACCACTC
Take B2: the binding result is reported as “binds”.
